In patent US20100310573A1 (Kyowa Kirin, published 2010):
Substitutions are numbered along the chain they refer to. Read-outs that look alike come from different tables or passages of the source.

B1: anti-CD4 chimeric antibody KM4045 (antibody, V domains shown)
VH: EVQLVESGGGLVQPGRSMKLSCAASGFTFSNYGMAWVRQAPTKGLEWVATISYDGSITYYRDSVKGRFTISRDHAKSTLYLQMNSLRSEDTATYYCTREEQYSSWYFDFWGPGIMVTVSS
VL: DIVLTQSPALAVSLGQRATISCRASQSVSISSHDLMQWYQQKPGQQPKLLIYDAFNLASGIPVRFSGSGSGTDFTLTIDPVQADDIATYYCQQSKDDPYTFGAGTKLELK
notes: Variable regions of rat KM4065 joined to a '113F type' heavy chain constant region and a human kappa constant region; In the 113F type, part of the human IgG1 Fc is substituted with human IgG3 Fc (US2007/0148165); Expressed in FUT8 knockout CHO cells (0% fucose)
B2: anti-CD4 humanized antibody HV4LV0 (antibody, V domains shown)
VH: B1 VH with K19R, T42G, H74N, A75S, S77N, S88A, P112Q, M115L
VL: DIQLTQSPSSLSASVGDRVTITCRASQSVSISSHDLMQWYQQKPGKAPKLLIYDAFNLASGVPSRFSGSGSGTDFTLTISSLQPEDFATYYCQQSKDDPYTFGQGTKLEIK
notes: Expressed from the humanized antibody expression vector pKANTEX93
B3: anti-CD4 humanized antibody HV4LV6 (antibody, V domains shown)
VH: B1 VH with K19R, T42G, H74N, A75S, S77N, S88A, P112Q, M115L
VL: B2 VL with A13V, V15L, V19A, A47Q, V62I, L82V
notes: as for B2

How the values were obtained:
[1] = molecular target: T1, recombinant human CD4 (catalogue number: 514-CD/CF, manufactured by R&D Systems) (human, UniProt P01730 26-390); assay: SPR, Biacore T100; antibody captured on anti-human IgG chip, recombinant human CD4 flowed; 1:1 binding model
T1 construct: Bought protein (R&D Systems); also called recombinant CD4
Method: (§1) In order to kinetically analyze the binding activity of anti-CD4 chimeric antibodies KM4045 to KM4049, 6G5-1 and 6G5-P to recombinant human CD4, the binding activity was measured by surface plasmon resonance method (SPR). All of the following manipulations were carried out using a Biacore T100 (manufactured by GE Healthcare Bio-Sciences). The anti-human IgG antibody was immobilized on a CM5 sensor chip (manufactured by GE Healthcare Bio-Sciences) by an amine coupling method using a Human Antibody Capture Kit (manufactured by GE Healthcare Bio-Sciences) in accordance with the protocols attached thereto. An assay sample (anti-CD4 chimeric antibodies KM4045 to KM4049) was added to be captured on the anti-human IgG antibody-immobilized chip to give 100 RU (resonance unit). Thereafter, the recombinant human CD4 (manufactured by R&D) diluted from 2500 ng/mL in five steps was allowed to run at a flow rate of 30 μL/min onto the chip, and the sensorgram corresponding to each concentration was obtained. The analysis was carried out in the 1:1 binding model using an analysis software attached to the apparatus, Biacore T100 Evaluation software (manufactured by Biacore), thereby calculating an association rate constant ka and a dissociation rate constant kd of respective antibodies for human CD4.
As a result, an association rate constant ka, a dissociation rate constant kd, and a dissociation constant KD (kd/ka) of individual antibodies thus obtained are given in Table 5.

[2] = molecular target: T1, recombinant human CD4 (catalogue …); assay: as above; remark: listed apart in the source
Method: as §1
The measurement of a binding activity was carried out according to the method described in Example 7(2). The association rate constant ka, the dissociation rate constant kd and the dissociation constant KD (kd/ka) of respective antibodies thus obtained are shown in Table 6.

[3] = molecular target: T1, recombinant human CD4 (catalogue …); assay: SPR, Biacore T100; antibody captured on anti-human IgG chip, recombinant human CD4 flowed; 1:1 binding model; kd beyond the maker's measurable limit
Method: as §1, with “CD4. […]” for “CD4.”

[4] = molecular target: T1, recombinant human CD4 (catalogue …); assay: SPR, Biacore T100; antibody captured on anti-human IgG chip, recombinant human CD4 flowed; 1:1 binding model; value beyond the maker's measurable limit (1 × 10^-5)
Method: as §1, with “CD4. […]” for “CD4.”

[5] = molecular target: T1, recombinant human CD4 (catalogue …); assay: SPR, Biacore T100; summary sentence to Table 6
[6] = molecular target: T1, recombinant human CD4 (catalogue …); assay: Biacore T100

Binder | kon [1] [M⁻¹ s⁻¹] | Kd [2] [pM] | koff [2] [s⁻¹] | kon [2] [M⁻¹ s⁻¹] | Kd [3] [pM] | koff [4] [s⁻¹] | Kd [5] [pM] | binding activity relative to the anti-CD4 chimeric antibody KM4045 [6]
B1 | 360000 | < 18.4 | < 1e-05 | 541000 | ≤ 0.0824 | < 1e-05 |  | 
B2 |  | < 12.6 | < 1e-05 | 791000 |  |  | ≤ 100 | 0.5 fold of KM4045
B3 |  | < 24.8 | < 1e-05 | 403000 |  |  | ≤ 100 | 0.5 fold of KM4045
